From paper PMC2483945, “Structure of the Head of the Bartonella Adhesin BadA” (PLoS Pathogens, 2008)

How the values were obtained:
[1] = target: BadA head fragment after trypsin treatment (protease-resistant fragment of approx. 14 kDa) (Bartonella henselae); experiment: not stated; fragments of approx. 14 kDa after trypsin or chymotrypsin treatment (10 min, room temperature, 20 mM MOPS/KOH pH 7.2, 150 mM NaCl); how the trimers were shown is not told
[2] = target: BadA head fragment after chymotrypsin treatment (protease-resistant fragment of approx. 14 kDa) (Bartonella henselae); experiment: as above
[3] = target: the molecule itself; experiment: SEC-MALS; calibrated analytical S200 column (GE Healthcare) coupled to a MiniDAWN Tristar static light scattering detector; data not shown

Molecule: BadA head fragment after trypsin treatment (protease-resistant fragment of approx. 14 kDa) (domain or fragment)
- stoichiometry N [1]: 3

Molecule: BadA head fragment after chymotrypsin treatment (protease-resistant fragment of approx. 14 kDa) (domain or fragment)
- stoichiometry N [2]: 3

B1: BadA head fragment (Trp-ring domain, GIN domain, neck and first stalk segment; residues 375 to 536) (domain or fragment)
chain: KALRGMISEKGGWNLTVNNDNNTVVSSGGALDLSSGSKNLKIVKDGKKNNVTFDVARDLTLKSIKLDGVTLNETGLFIANGPQITASGINAGSQKITGVAEGTDANDAVNFGQLKKIETEVKEQVAASGFVKQDSDTKYLTIGKDTDGDTINIANNKSDKRT
notes: Residues 385-498 are resolved in the crystal; also called BadA construct; BadA fragment; source: recombinantly expressed, purified as described [11]
- stoichiometry N [3]: 3
